Results from patent US11787850B2, “Peptidic TGF-beta antagonists” (priority 2015, dated 2023).

Legend:
[1] = Size-exclusion chromatography on Superdex Peptide 10/300GL column; assay type: physicochemical; settings: for formation of aggregates by size-exclusion chromatography: peptide in PBS, Superdex Peptide 10/300GL, 0.6 ml/min; for Aggregation?: size-exclusion chromatography, peptide dissolved in PBS
Protocol: Approximately 200 μg of each peptide X (40 amino acids), X-1 (28 amino acids), peptide A (161 amino acids), P11 (11 amino acids), P16 (16 amino acids), P21 (21 amino acids, P16-2 (16 amino acids, scrambled sequence control), X-3 (16 amino acids) and X-4 (11 amino acids) were dissolved in phosphate-buffered saline (PBS) and loaded onto a Superdex Peptide 10/300GL column. The column was eluted with PBS at a flow rate of 0.6 mL/min and eluents were analyzed for peptide content by measuring relative absorbance at a wavelength of 215 nm. (FIGS. 3A and 3B) The data is plotted with relative absorbance (Y-axis) against elution volume (X-axis). Peptides 1-9 are color coded (A—peptides (1) to (5); B (peptides (6) to (9)). As shown on panel A, peptide X (peptide 1, black line) elution profile indicated two major peaks at approximately 8 mL and 11 mL which correspond to molecular weights greater than 12.4 kDa. The theoretical molecular weight of peptide X is 4.7 kDa which is expected to elute from the column at approximately 15 mL. Under the conditions tested, peptide X existed as high molecular weight aggregates with minimal soluble (monomeric) form. On the other hand, P16 (peptide 5, green line) elution profile indicated a broad peak between 14-22 mL which is expected to contain peptides of between 0.1 and 6 kDa and is consistent with its theoretical molecular weight of 2.01 kDa.
FIG. 4 illustrates the standard curve used for size-exclusion chromatography of standard peptides using the Superdex Peptide 10/300 GL column (results provided in FIG. 3). A pool of standard peptides of various molecular weights (1. cytochrome c (Mr 12.384 kDa) 1 mg/mL; 2. aprotinin (Mr 6.512 kDa) 2 mg/mL; 3. vitamin B12 (Mr 1.355 kDa) 0.1 mg/mL; 4. (Gly)3 (Mr 0.189 kDa) 0.1 mg/mL; 5. Gly (Mr 0.075 kDa) 7.8 mg/mL) were subjected to size-exclusion chromatography using the Superdex Peptide 10/300 GL column (flow rate 0.5 ml/min at room temperature, sample volume of 50 μL, eluent 0.05M phosphate, 0.15 M NaCl, ph 7.0). The resulting chromatogram (absorbance at 215 nm (in mAU, left Y axis) and conductivity (in mS/cm, right Y axis, in function of volume of elution (in mL)) indicates the elution profiles of the above peptides with high MW peptides eluting in earlier fractions and lower MW peptides eluting in later fractions as expected. The molecular weights of peptides were plotted against elution volume generating a standard curve (not shown).
More specifically, approximately […] of each peptide X (40 amino acids), X-1 (28 amino acids), peptide A (161 amino acids), P11 (11 amino acids), P16 (16 amino acids), P21 (21 amino acids, P16-2 (16 amino acids, scrambled sequence control), X-3 (16 amino acids) and X-4 (11 amino acids) were dissolved in phosphate-buffered saline (PBS) and loaded onto a Superdex Peptide 10/300GL column. The column was eluted with PBS at a flow rate of 0.6 ml/min and eluants were analyzed for peptide content by measuring relative absorbance at a wavelength of 215 nm. The data were plotted with relative absorbance (Y-axis) against elution volume (X-axis). […] The theoretical molecular weight of peptide X is 4.7 kDa which is expected to elute from the column at approximately 15 mL. […] P16 (peptide 5) elution profile indicated a peak between 14-22 mL which was expected to contain peptides of between 0.1 and 6 kDa and is consistent with its theoretical molecular weight of 2.01 kDa.
More specifically, a pool of standard proteins of various molecular weights were subjected to size-exclusion chromatography using the Superdex Peptide 10/300 GL column. The resulting chromatogram indicated the elution profiles of the peptides with high molecular weight peptides eluting in earlier fractions and lower molecular weight peptides eluting in later fractions as expected. The molecular weights of peptides were plotted against elution volume generating a standard curve (not shown) and was used to calculate molecular weights of the CD109-based peptides. […]

[2] = tested on: TGF-β1-induced Smad3-driven (CAGA12-lux) transcriptional activity; assay: Luciferase reporter assay in HEK293-(CAGA)12 cells; assay type: cell-based
[3] = Aggregation assay: Microcon 100 kDa filtration, Tricine SDS-PAGE, silver staining; assay type: physicochemical; settings: for aggregation state (aggregated versus soluble fraction): 50 mM Tris-HCl pH 7.0, 2 hrs at 4° C., 100 kDa cut-off; for effect of DMSO treatment on aggregation: 0.5% DMSO for 2 hrs at 4° C.
Protocol: Peptide X (X, 40 amino acids) and P16 (16 amino acids) were left untreated (−) or treated with 0.5% DMSO (+) for 2 hrs at 4° C. The aggregated and non-aggregated soluble fractions were then separated using a Microcon™ centrifugal filtration device (Millipore), with a molecular weight cut-off of 100 kDa. This device allows passage of molecules <100 kDa through the filter but retains larger molecules (aggregates). The aggregated (FIG. 1A—left panel) and soluble (FIG. 1B—right panel) fractions were then separated by 17% Tricine-SDS gel electrophoresis and peptides detected by silver staining. In the conditions tested, multiple bands with various staining intensities were detected in peptide X aggregated fraction and two of these bands were decreased with DMSO treatment (A—left panel, arrows) leading to an increase in the amount of soluble peptide X (B—right panel, arrow, lane 2 versus 3). […] (A-B) Lane 1: Molecular weight marker. Lanes 2-5: samples.
Aggregation assay. Soluble peptides were separated from aggregates and precipitates by filtration. The molecular weight cut-off of the filter was chosen such that soluble protein was allowed to pass through the filter, while aggregate forms were retained. Peptide X and P16 previously dissolved in 50 mM Tris-HCl (pH=7.0) were left untreated or treated with 0.5% dimethyl sulfoxide (DMSO) for 2 hours at 4° C. Soluble protein was then separated from aggregated protein using a Microcon™ concentrator (Millipore), with a molecular weight cut-off of 100 kDa. The Microcon was spun in a desktop centrifuge at 16,000×g for 15 min. Aggregated protein retained on the membrane was resuspended in H2O, pipetting repeatedly across the membrane to ensure that as much protein as possible was removed. Aliquots of soluble protein and aggregated protein were each mixed with 5× sample buffer (250 mM Tris-HCl, 40% glycerol, 140 mM SDS, 0.6 M β-mercaptoethanol, pH 6.8) and heated to 85-90° C. for 10 min prior to Tricine SDS-PAGE. Samples were analyzed by 17% Tricine SDS-PAGE and peptides visualized by silver staining. Aggrescan Analysis
Peptide X (X, 40 amino acids) and P16 (16 amino acids) were left untreated (−) or treated with 0.5% DMSO (+) for 2 hrs at 4° C. The aggregated and non-aggregated (soluble) fractions were then separated using a Microcon centrifugal filtration device (Millipore), with a molecular weight cut-off of 100 kDa. This device allows passage of molecules less than 100 kDa through the filter but retains larger molecules (aggregates). The aggregated and soluble fractions were then separated by 17% Tricine-SDS gel electrophoresis and peptides visualized by silver staining.

| Sequence | formation of aggregates by size-exclusion chromatography [1] | Aggregation? [1] | inhibition of TGF-β1-induced CAGA12-lux activity ([2]; 10 nM or 5 nM peptide, 100 pM TGF-β1, 18 hours (FIG. 5)) | inhibition of TGF-β1-induced CAGA12-lux activity ([2]; 10 nM peptide, 100 pM TGF-β1, 18 hours (FIG. 6)) | aggregation state (aggregated versus soluble fraction) [3] | effect of DMSO treatment on aggregation [3] | molecular weights corresponding to the elution peaks ([1]; PBS, theoretical MW peptide X 4.7 kDa, P16 2.01 kDa) |
| --- | --- | --- | --- | --- | --- | --- | --- |
| ETWIWLDTNMGSRIYQ [Peptide P16] | did not | Not aggregated | inhibited | inhibited | aggregated only to a minor extent | not altered by DMSO treatment | – |
| LGSSPHVRKHFPETWIWLDTNMGSRIYQEFEVTVPDSITS (Peptide X) | formed aggregates | Aggregated | – | – | existed predominantly in aggregated form | partially decreased | greater than 12.4 kDa |
